Here are results for one molecule from publication PMC4706430 (2016).

In the assay the target is kallikrein (human, UniProt P03952 20-638).

As a reminder, the Ki is the equilibrium dissociation constant of an inhibitor or competing ligand from its target. A high value points to a looser hold on the target.

Sequence of kallikrein (P03952 20-638): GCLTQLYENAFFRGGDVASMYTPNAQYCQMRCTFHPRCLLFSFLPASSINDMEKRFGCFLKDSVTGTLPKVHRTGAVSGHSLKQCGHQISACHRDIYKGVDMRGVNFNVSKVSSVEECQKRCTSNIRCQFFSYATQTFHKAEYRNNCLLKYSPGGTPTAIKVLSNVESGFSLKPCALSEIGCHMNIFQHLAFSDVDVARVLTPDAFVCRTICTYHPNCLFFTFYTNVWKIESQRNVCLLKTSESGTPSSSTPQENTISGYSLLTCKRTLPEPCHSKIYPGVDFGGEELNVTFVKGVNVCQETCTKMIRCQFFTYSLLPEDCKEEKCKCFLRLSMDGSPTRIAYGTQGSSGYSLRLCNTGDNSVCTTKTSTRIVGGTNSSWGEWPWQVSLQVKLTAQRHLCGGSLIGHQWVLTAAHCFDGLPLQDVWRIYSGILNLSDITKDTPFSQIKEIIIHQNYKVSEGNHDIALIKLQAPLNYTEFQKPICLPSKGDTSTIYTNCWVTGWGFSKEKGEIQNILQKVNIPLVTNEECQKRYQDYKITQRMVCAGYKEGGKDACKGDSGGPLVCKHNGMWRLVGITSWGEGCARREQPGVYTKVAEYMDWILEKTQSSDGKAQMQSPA

B1: Boophilin (natural protein)
chain: QRNGFCRLPADEGICKALIPRFYFNTETGKCTMFSYGGCGGNENNFETIEDCQKACGAPERVSDFEGADFKTGCEPAADSGSCAGQLERWFYNVRSGECETFVYGGCGGNDNNYESEEECELVCKNM
modifications: N-terminus blocked (Edman degradation)
B1: affinity was put at a Ki of 919 nM.
